Target: Hsp90α in MCF-7 cells (Thr90 phosphorylated, intracellular) (human)
Assay: cell-based or functional assay

human PP5 in MCF-7 cells (overexpressed from pcDNA3.1/Myc-His(-), or the endogenous protein knocked down by siRNA) (enzyme)
Thr90 phosphorylated Hsp90α level in MCF-7 cells on overexpression of human PP5 (of the control): 0.55 | Thr90 phosphorylated Hsp90α level in MCF-7 cells on siRNA knock-down of human PP5 (of the control): 1.58
